Assay results as given in the DeepSol protein solubility set.

Test: soluble on expression in E. coli; label from the status in PepcDB or PDB records

| Sequence | soluble on expression in E. coli |
| --- | --- |
| SLNAEEKKGLQRAIEEITEIAKGFGLDFYPMRYEICPAEIIYTFGAYGMPTRFSHWSFGKQFHKMKLHYDLGLSKIYELVINSDPCYAFLLDSNSLIQNKLIVAHVLAHCDFFKNNCRFQNTKRDMVESMAATAERIKHYEQVHGIKEVESFLDAILSIQEHIDPSLVRPKLQWSVDDEEEEIEEAATPYDDLWSLDEKKPKKQVKKSKKPFPPRPEKDILLFIEEHSRELEPWQRDILTMMREEMLYFWPQLETKIMNEGWASYWHQRIIRELDLTSDEAIEFAKLNAGVVQPSKTGINPYYLGLKIFEDIEKRYNNPTEEMKKMGVQPDSGREKMFEVREIESDISFIRNYLTKELVMREDLYLFAAAGRDYKIIDKQWKSVRDQLVSMRVNGGFPYLTVNDGDYMKNNELYIKHWYEGIELDLKYLEKVLPYLFQLWGRSVHIESVLEDKEVMFSYDGKGVHRRYL | soluble |
| SLPERGKTETADGEVFLQWLRQSVTDGMLSVNESDSVLHILARFVFVASPDVFYKYTSSAGDAVQDKKQLQKSFEALSVHHSRNGKGLYHYHKYDAPDKSGGFIKVSGYMIETNLIFRKGSCPSDSIWLSPRS | soluble |
| SLQKFKWSNIYCKEADCVRILLVADPQILGKTFDTHFYAGLANYDSDRYLAWYYEQAVEHVQPDVIIFLGDLMDEGTDSTEMHFEEYYTRFGAIFPTHPTARSIYIPGDNDIGGEGRQPLNPIAKRRFRQYFSERPAWVINDNLTIYNINRITLEMTLNDPRMVDSTGSDVSDRYLRIFVSHMPVLDVPSSFTYTAIHNLKPNVIFSAHLHVSQFARIHRSRLKTVQYKPLSQDKRTAYKVHSFDLSYHQDTQELLEIIVPTCSYRMSVPDIGYGYAAIDGTTLKYTVLWTTRRFYQLISYV | not soluble |
| SLRAKNQLFLLSPHYLRQVKESSGSRLIQQRLLHQQQPLHPEWAALAKKQLKGKNPEDLIWHTPEGISIKPLYSKRDTMDLPEELPGVKPFTRGPYPTMYTFRPWTIRQYAGFSTVEESNKFYKDNIKAGQQGLSVAFDLATHRGYDSDNPRVRGDVGMAGVAIDTVEDTKILFDGIPLEKMSVSMTMNGAVIPVLANFIVTGEEQGVPKEKLTGTIQNDILKEFMVRNTYIFPPEPSMKIIADIFEYTAKHMPKFNSISISGYHMQEAGADAILELAYTLADGLEYSRTGLQAGLTIDEFAPRLSFFWGIGMNFYMEIAKMRAGRRLWAHLIEKMFQPKNSKSLLLRAHCQTSGWSLTEQDPYNNIVRTAIEAMAAVFGGTQSLHTNSFDEALGLPTVKSARIARNTQIIIQEESGIPKVADPWGGSYMMECLTNDVYDAALKLINEIEEMGGMAKAVAEGIPKLRIEECAARRQARIDSGSEVIVGVNKYQLEKEDTVEVLAIDNTSVRNRQIEKLKKIKSSRDQALAERCLAALTECAASGDGNILALAVDASRARCTVGEITDALKKVFGEHKANDRMVSGAYRQEFGESKEITSAIKRVHKFMEREGRRPRLLVAKMGQDGHDRGAKVIATGFADLGFDVDIGPLFQTPREVAQQAVDADVHAVGVSTLAAGHKTLVPELIKELNSLGRPDILVMCGGVIPPQDYEFLFEVGVSNVFGPGTRIPKAAVQVLDDIEKCLEKKQQSV | not soluble |
| SLREHLMSIEVANESGIDVSEAELVSVARFVIAKMDVNPCAELSMLLLDTAAMADLHMRWMDLPGPTDVMSFPMDELEPGGRPDAPEPGPSMLGDIVLCPEFAAEQAAAAGHSLGHELALLTIHGVLHLLGYDHAEPDEEKEMFALQDRLLEEWVADQVEAYQHDRQDEKDRRLLDKSRYFDL | not soluble |
| SLRSFEAPNGVAFASIGDTGAANSNQAKCGISLAALSVALDIKFVNLLGDNLYPHGVTSAVDPLWQSAFEVPFGAPSLQKVAFFPVLGNHDYHLDPYAQIDRCIRLGNEHLNFTEKEKTDGSRPQLSKTYQMQAMLPWMKIHHEKFRYSFDQTTKMHGLDGPRWRLPNFWYFTRHVFRNVPRHVKNPFVTGASISDISLVSTEEDKTDVTVVTIYIDSMVLLLEEGSKSSSIRYRFPRDELYYRHLEFLEDTLKAATREADWIFIAGHHPVVNYSVRNAKPSDFAVRLTELMRKYKVDTFLSGHEHALSFFQEPDANTTHIISGTGSKLSARDPIPSKDCLFSVREHGVAVHVLGKEELHHGFVSADGKVLFTASQRRQDRT | soluble |
| SLRYASDFEEIAVLGQGAFGQVVKARNALDSRYYAIKKIRHTEEKLSTILSEVMLLASLNHQYVVRYYAAWLERRNFVKPMTAVKKKSTLFIQMEYCENRTLYDLIHSENLNQQRDEYWRLFRQILEALSYIHSQGIIHRDLKPMNIFIDESRNVKIGDFGLAKNVHRSLDILKLDSQNLPGSSDNLTSAIGTAMYVATEVLDGTGHYNEKIDMYSLGIIFFEMIYPFSTGMERVNILKKLRSVSIEFPPDFDDNKMKVEKKIIRLLIDHDPNKRPGARTLLNSGWLPVKHQDEVIKEALKSL | soluble |
| SLSAKDKANVKAIWGKILPKSDEIGEQALSRMLVVYPQTKAYFSHWASVAPGSAPVKKHGITIMNQIDDCVGHMDDLFGFLTKLSELHATKLRVDPTNFKILAHNLIVVIAAYFPAEFTPEIHLSVDKFLQQLALALAEKYR | soluble |
| SLSCRKEQGKFYDHLLRDCISCASICGQHPKQCAYFCENKLR | soluble |
| SLSQIKVLIVDDARFIRDHVTRIVKEHFPEYQIDAAEDGDDGQKAMSKVDYDLILCDWEMPGKSGLELLTWARSQPHYADIPFVMVTEG | soluble |
| SLSSTVSYWILNSTRNSIATLQGGRRLYSRYVSNRNKLKWRLFSRVPPTLNSSPCGGFTLCKAYRHTSTEEDDFHLQLSPEQINEVLRAGETTHKILDLESRVPNSVLRFESNQLAANSPVEDRRGVASCLQTNGLMFGIFDGHGGHACAQAVSERLFYYVAVSLMSHQTLEHMEGAMESMKPLLPILHWLKHPGDSIYKDVTSVHLDHLRVYWQELLDLHMEMGLSIEEALMYSFQRLDSDISLEIQAPLEDEVTRNLSLQVAFSGATACMAHVDGIHLHVANAGDCRAILGVQEDNGMWSCLPLTRDHNAWNQAELSRLKREHPESEDRTIIMEDRLLGVLIPCRAFGDVQLKWSKELQRSILERGFNTEALNIYQFTPPHYYTPPYLTAEPEVTYHRLRPQDKFLVLASDGLWDMLSNEDVVRLVVGHLAEADWHKTDLAQRPANLGLMQSLLLQRKASGLHEADQNAATRLIRHAIGNNEYGEMEAERLAAMLTLPEDLARMYRDDITVTVVYFNSESIGAYYKGG | not soluble |
| SLTLPQTERQYLSGHGCDDMVEWDFFCTDGRNSGKWTKIGVPSCWELQGFGTYQYGITFYGKAFPEGIADEKGMYKYEFEVPEKFRGQQVNLVFEASMTDTEVKVNGRKVGSKHQGAFYRFSYNVTDFLKYGKKNLLEVTVSKESENASVNLAERRADYWNFGGIFRPVFLEVKPAINLRHIAIDAQMDGSFRANCYTNLSNDGMSIRAQILDNKGKKLTETTVPVKAGGDWTSLQLKVSDPALWTAETPNLYKAQFSLLDKDGKVLHNETETFGFRTIEVRESDGLYVNGVRIMVRGVNRHSFRPESGRTLSKAKNIEDVLLMKDMNMNSVRLSHYPADPEFLEACDSLGLYVMDELGGWHGKYDTPTGVRLIKGMIERDVNHPSIIWWSNGNEKGWNTELDGEFHKYDPQKRPVIHPQGNFSGFETMHYRSYGESQNYMRLPEIFMPTEFLHGLYDGGHGAGLYDYWEMMRKHPRCIGGFLWVLADEGVKRVDMDGFIDNQGNFGADGIVGPHHEKEGSFYTIKQLWSPVQIMNTSVDKQFDGKFSVENRYDYLNLNTCRFLWKQVKFPTATDASNTTAQVLKQGEVQGSDVAAHSAGVLDIKTTILPDADALFLTAIDRYGHELWRWTFPVNKLNQANEVLSPLSNEG | soluble |
| SLVLMSETKNELEDLLEKAATEPAHRPAFFRTLLESTVWVPGTAAQGEAVVEDSALDLQHWEKEDGTSVIPFFTSLEALQQVVEDEQAFVVMPVRTLFEMTLGETLFLNAKLPTGKEFMPREISLLIGEEGNSLSSQEVLEGGESLILSEVAEPPVQMIDSLTTLFKTIKPVKRAFICLIKESEEAQPNLLIGIEADGDIEEIIQAAGSVATDTLPGDEPIDICQVKKGEKGISHFITEHIAPFYERRWGGFLRDFKQNRII | soluble |
| SLVSSMHDLLLRNVRPMAGEACDIMIRNGKITGFGKFDAEPGLPVEDGKGAIAVPGLIDAHTHLDKTTWGMPWHVNNRAAILRERIDFERENRVQIGIDPHRQSMRHAIGLAANGGTHIRSHVDIDPTHGLKLVEGIWETREKLDGIIDIEVVAFPQSGVMVMPGTVELLDEALKQGCEVLGGIDPCGIDRDPKGQLDILFQLATKHGVPIDIHLHEAADLGAFTMELIFERIRANGMQGNVAISHAFALGMNDYLRVGRLIDEIARLDVAILTTGAPSASVPSIMRLKEAGVRVGGGCDGIRDTWGPWGQPDMLDRAKIIGMKNGLRSDVELAHVLHVVSRGGADVMGIEDYGMEIGCAADFTLLTGETLAHAVVDITPRPLVVKGGRVTARNGKAIVEAP | soluble |
| SMHPVAGSNPAFCGPGKPSCLNEDAMRAADQFDLYSSQQNKYSHTVSHKPMVCQRQDPLNETHLQPTSGRNIEIKDELKKKKNLNRSGKRGRPSGTTKSAGYRTSTGRPLGTTKAAGFKTSPGRPLGTTKAAGYKVSPGRPPGSIKALSRLADLGYGCGTAAFPYPMMHSRVVHGLQETSGEVKPPSE | soluble |
| SMSRPDQAARRRAIAAELHVSPTFDARDEAERRIGFVADYLRTAGLRACVLGISGGIDSSTAGRLAQLAVERLRASGYDARFVAMRLPYGAQHDEADARRALAFVRADETLTVDVKPAADAMLAALAAGGLAYLDHAQQDFVLGNIKARERMIAQYAVAGARNGVVIGTDHAAESVMGFFTKFGDGGADVLPLAGLTKRRVRALARMLGADEPLVLKTPTADLETLRPQRPDEHAYGITYEQIDDFLEGKPMDDAVAETVLRFYDATRHKRALPYTMFDWPGHPA | soluble |
| SNAASATETNTAPSADTQAPKPVNTVTSDVDCSVSAAWGLYKFNQKSNFSAEFEMPESVKAGTGFDALIKIKDISVSNDNLSGYKNAKLTKSSIRINVGKNVKLDGNQPGLSLSNGVLSINDHLKASLEGNSLRISAAPITVRLQALTEGTLTFIPEKTILTNTASVDGYTANTTCTTNADKPFATVKVDPADGLTITAPESASIKQDVQITATVPEKLNEKMDGKVQFFVNHIAAGDPVPVTEDNKASTSIIFDTSGSKTITARFIDAEGYNPAPDGETIIPVVTELDTKKPEDTDSYTGLINGSATSLLKPAKVMPGEKVSVSASLLPNKAPIRVYEIGINAPEDVKYIDGTGKTNYSSKLATTGSVFSSPGSGYYDPEWKNESKKPNESYRGFHSDTSYSVVDTSPQTVSAEFEIPKTLAPGIYMFQMGVYKYSNSLKDLVSIPETAFEIAGPDLPALPERKIKPQPEETPEVSDGSSTAKLVKSP | soluble |
| SNAKKVCVDTCVVIDGRITELIERGKLKDATIIIPEAVVSELEYQANMGREIGYKGIEELRKLIEKASEHNIKVEYYGERPTREEIFLAKSGEIDAMIRKVAKETNSILLTSDWIQYNLAKAQGIEAYFLEAAEEEVELVLD | soluble |
| SNAMITKAIYPGTFDPITNGHLDLVTRASAMFSHVILAIADSSSKKPMFTLDERVALAKKVTAPLKNVEVLGFSELMAEFAKKHNANILVRGLRSVSDFEYEWQLANMNRHLMPKLESVFLIPSEKWSFISSSLVKEVARHGGDITPFLPKPVTKALLAKLA | soluble |
| SNAMKELIKEHQKDINPALQLHDWVEYYRPFAANGQSANYIPALGKVNDSQLGICVLEPDGTMIHAGDWNVSFTMQSISKVISFIAACMSRGIPYVLDRVDVEPTGDAFNSIIRLEINKPGKPFNPMINAGALTIASILPGESAYEKLEFLYSVMETLIGKRPRIHEEVFRSEWETAHRNRALAYYLKETNFLEAEVEETLEVYLKQCAMESTTEDIALIGLILAHDGYHPIRHEQVIPKDVAKLAKALMLTCGMYNASGKYAAFVGVPAKSGVSGGIMALVPPSARREQPFQSGCGIGIYGPAIDEYGNSLTGGMLLKHMAQEWELSIF | soluble |
